Measurements: paper PMC8779334, “Synthesis, Physicochemical and Biological Study of Gallium-68- and Lutetium-177-Labeled VEGF-A165/NRP-1 Complex Inhibitors Based on Peptide A7R and Branched Peptidomimetic” (Pharmaceutics, 2022)
Like-named read-outs stand apart in the source and are kept apart here. Where a SMILES comes first, the peptide text is derived from it. Where no end group is shown, it is not given here. Side-chain parts run from the residue outwards. [ ]: non-standard residue; d: D form. The star is where a group is joined. DOTA = O=C(O)CN1CCN(CC(=O)O)CCN(CC(=O)*)CCN(CC(=O)O)CC1; hArg = N=C(N)NCCCC[C@H](N)C(=O)O; Dab = NCC[C@H](N)C(=O)O; Ahx = NCCCCCC(=O)O

Legend:
[1] = assay type: physicochemical; conditions: pH 7.4
Procedure: The lipophilicity (L) of tested radiocompounds, defined as the decimal logarithm (logP) of the partition coefficient (P) of the compound between the two immiscible phases, was determined in the system PBS solution (aqueous phase, polar phase, pH 7.4) and n-octanol (organic, non-polar phase) according to the following formula: L=logP=logAo/Aw where Ao —organic phase radioactivity; Aw —aqueous phase radioactivity. Radioactivity of both phases, resulting from the concentration of the tested radiocompound in each of them, was determined by measuring the gamma radiation with a Wizard counter in three independent experiments. Before starting the research, both liquid phases were saturated with each other to avoid errors resulting from the mutual solubility of both liquids. The partition coefficient (P) result is shown as the mean ± SD. After the end of the experiment, we performed RP-HPLC analysis of the aqueous phase to confirm the tested radioconjugate remained intact during the experiment.

[2] = assay type: in vitro ADME; conditions: human, serum
Procedure: Stability studies of the ^68Ga-1, ^177Lu-1, ^68Ga-2, and ^177Lu-2 radioconjugates in human serum (HS) were performed according to the following procedure: into a vial containing 900 µL of HS we added 100 µL of the tested radioconjugate and incubated the mixture at 37 °C. After the specified incubation times (10 min–4.5 h for ^68Ga-radiocompounds and 10 min–4 days for ^177Lu-radiocompounds), we withdrew the aliquots, mixed with ethanol to precipitate the proteins, and centrifuged (14,000 rpm, 5–15 min) to separate the protein compounds from the supernatant. The gamma radioactivity of the obtained precipitate and supernatant was then measured using a Wizard detector. Using the formula below, the amount of radioconjugate remaining in the supernatant (and also bound by serum protein components) was calculated. ∑ liquid phase radioactivity/∑ liquid phase radioactivity+∑ percipitate radioactivity ×100% We also analyzed the supernatant at each time by RP-HPLC in System 3 with gamma detection for ^68Ga-1 and ^177Lu-1 and System 4 with gamma detection for ^68Ga-2 and ^177Lu-2 to check whether the studied radiocompound remained unchanged during the experiment.

[3] = test system: VEGF-A165/NRP-1 complex; conditions: read-out: IC50 (VEGF-A165 binding with NRP-1); cited from earlier work
[4] = cited from earlier work

| Compound | logP ± SD [1] | IC50 [3] [µM] | also measured |
| --- | --- | --- | --- |
| CC(C)C[C@H](NC(=O)[C@H](Cc1c[nH]c2ccccc12)NC(=O)[C@@H](NC(=O)[C@H](C)NC(=O)CCCCCNC(=O)CN1CCN(CC(=O)O)CCN(CC(=O)O)CCN(CC(=O)O)CC1)[C@@H](C)O)C(=O)N1CCC[C@H]1C(=O)N1CCC[C@H]1C(=O)N[C@@H](CCCNC(=N)N)C(=O)O [^68Ga-1, [^68Ga]Ga-DOTA-Ahx-A7R, metal not drawn] ({DOTA-Ahx}-ATWLPPR-OH) | −3.92 ± 0.03 | – | – |
| N=C(N)NCCCC[C@H](N)C(=O)NCCCC[C@H](N)C(=O)N[C@@H](CCNC(=O)CCCCCNC(=O)CN1CCN(CC(=O)O)CCN(CC(=O)O)CCN(CC(=O)O)CC1)C(=O)N1CCC[C@H]1C(=O)N[C@@H](CCCNC(=N)N)C(=O)O [^68Ga-2, [^68Ga]Lys(hArg)-Dab(Ahx-DOTA-Ga)-Pro-Arg, metal not drawn] (H-K(hArg)[Dab]([Ahx-DOTA])PR-OH) | −4.57 ± 0.05 | – | – |
| CC(C)C[C@H](NC(=O)[C@H](Cc1c[nH]c2ccccc12)NC(=O)[C@@H](NC(=O)[C@H](C)NC(=O)CCCCCNC(=O)CN1CCN(CC(=O)O)CCN(CC(=O)O)CCN(CC(=O)O)CC1)[C@@H](C)O)C(=O)N1CCC[C@H]1C(=O)N1CCC[C@H]1C(=O)N[C@@H](CCCNC(=N)N)C(=O)O [^177Lu-1, [^177Lu]Lu-DOTA-Ahx-A7R, metal not drawn] ({DOTA-Ahx}-ATWLPPR-OH) | −3.40 ± 0.14 | – | radioconjugate remaining in HS sample (in words) ([2]; 96 h): still visible |
| N=C(N)NCCCC[C@H](N)C(=O)NCCCC[C@H](N)C(=O)N[C@@H](CCNC(=O)CCCCCNC(=O)CN1CCN(CC(=O)O)CCN(CC(=O)O)CCN(CC(=O)O)CC1)C(=O)N1CCC[C@H]1C(=O)N[C@@H](CCCNC(=N)N)C(=O)O [^177Lu-2, [^177Lu]Lys(hArg)-Dab(Ahx-DOTA-Lu)-Pro-Arg, metal not drawn] (H-K(hArg)[Dab]([Ahx-DOTA])PR-OH) | −3.75 ± 0.08 | – | radioconjugate remaining in HS sample (in words) ([2]; 24 h): only traces of radioconjugate were present |
| ATWLPPR [A7R] | – | 5.9 | – |
| Lys(hArg)-Dab-Pro-Arg | – | 0.2 | stability half-life in human serum [4]: ~2 days; half-life ([4]; peptidomimetic concentration 0.9 µmol/mL, UV/VIS detection): 41 h |
